Laboratory results from paper PMC12102759.

Biological target: G3BP1 NTF2-like domain (human) (UniProt Q13283)
Test: fluorescence polarisation

Chain of G3BP1 NTF2-like domain (human) (Q13283 1-139): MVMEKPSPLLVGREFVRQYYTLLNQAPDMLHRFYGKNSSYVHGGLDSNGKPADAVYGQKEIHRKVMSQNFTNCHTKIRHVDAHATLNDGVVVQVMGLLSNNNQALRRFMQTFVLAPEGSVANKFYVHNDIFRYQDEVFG

SARS-CoV-2 N wt peptide 12-26 (peptide; other documents disagree on this pair)
IC50: 8.7 µM
